We go through 141 substances from the supplement of paper PMC12042874.

± gives the uncertainty stated by the source.

The nature of the data set: amyloid nucleation score (Sup35N fusion, yeast selection) (log enrichment); library NNK2; higher = more nucleation; inactive = no reads after selection. In short, it runs like this: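 Libraries of peptides of 20 random codons fused to Sup35N were expressed in psi-negative yeast and induced 24 hours with 100 μM copper sulfate. Selection was 7 days at 30°C on medium lacking adenine and uracil, and plasmid inserts were Illumina-sequenced before and after selection. Nucleation score is the DiMSum log enrichment of output over input reads, centred on the mode score of non-aggregating sequences, and sequences with under 100 input reads were left out.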
LKARIACADYIRSGIILLCS gave an amyloid nucleation score of 2.2 ± 0.08.

Substance LKCRVITQSCIPSSINRLDG displayed an amyloid nucleation score of -0.02 ± 0.22.

Take LKHKHRNMRITCSASI: the amyloid nucleation score was -0.269 ± 0.25.

LKIFLLIVVGDDFMKSKYCP yielded an amyloid nucleation score of -0.612 ± 0.64.

LKKFVPPELRSADVDRKCSK: the amyloid nucleation score result was “inactive”.

LKMIWIYSFCLILVLYLRQA yielded an amyloid nucleation score of 0.148 ± 1.

Substance LKRYKVRQFSTCLWAGAYSQ showed an amyloid nucleation score of 0.407 ± 0.23.

Turning to LKSSNRGNVRKRLLGEDEGT, the amyloid nucleation score was determined as 0.245 ± 0.37.

Regarding LKWDFRIYTTSWAAKKQGME, the amyloid nucleation score was 0.095 ± 0.37.

In the case of LLACLKGTSGAGRIYAYLMT, the amyloid nucleation score is -0.096 ± 0.3.

Consider LLAFFMWSLRQRDSGTLLLD, for which the amyloid nucleation score was -0.63 ± 0.52.

For the substance LLAFHCGHQMCFGVINMSTG, the amyloid nucleation score was 3.83 ± 0.065.

Substance LLALTFSTETQGRHTKCHSL had an amyloid nucleation score of 4.07 ± 0.094.

Substance LLAVFTSCYCQECYVEPALV displayed an amyloid nucleation score of 5.55 ± 0.07.

For the substance LLCCIIIIGMVLGLMTDPEW, the amyloid nucleation score was -0.781 ± 0.76.

The substance LLCMVIMVGFYSRSAGNTDQ registered an amyloid nucleation score of 0.696 ± 0.6.

As for LLCVGHFFLQ, the amyloid nucleation score result was “inactive”.

Regarding LLDWTLLSNST, the amyloid nucleation score result is “inactive”.

For LLETMAK, the amyloid nucleation score entry was “inactive”.

Substance LLFPCFVTRSLVS yielded an amyloid nucleation score of -0.871 ± 0.32.

Substance LLFPLGISHAYMGRFFFRMV had an amyloid nucleation score of -0.266 ± 1.1.

In turn, LLHAVQDHVGLPTVYRRCSR returned an amyloid nucleation score of 2.79 ± 0.11.

LLLCYYVFASHKFCCGDGVL showed an amyloid nucleation score of -0.302 ± 0.76.

LLLRGQLQVMPGDPARRMYV gave an amyloid nucleation score of 0.556 ± 0.29.

LLMFRVRVDELWHGAARHMG gave an amyloid nucleation score of 1.64 ± 0.38.

As for LLMQVIRPVNLLFRWRELWA, the amyloid nucleation score is 0.213 ± 0.34.

Substance LLMVRVGRSQVRSNKNRH gave an amyloid nucleation score of 5.984 ± 0.054.

Regarding LLPATWYLVLF, the amyloid nucleation score was -0.204 ± 0.49.

Substance LLPIGEVKE returned an amyloid nucleation score of -1.17 ± 0.44.

LLPYSSHN gave an amyloid nucleation score of 4.901 ± 0.039.

Consider LLTMVHTSSIRKESGF, for which the amyloid nucleation score was -0.118 ± 0.5.

Substance LLTTEQ yielded an amyloid nucleation score of 1.29 ± 0.43.

As to LLVAEVV, the amyloid nucleation score was 0.538 ± 0.49.

Turning to LLYRYYSF, the amyloid nucleation score worked out at 3.72 ± 0.056.

LLYTDYMMIYCIAFMLSDDY registered an amyloid nucleation score of -0.916 ± 1.1.

Take LMDQSTFNRVKYVGHWVVSG: the amyloid nucleation score was 1.74 ± 0.087.

For the substance LMFTCVMSFWRLSVRVILNY, the amyloid nucleation score amounted to 0.277 ± 0.41.

For the substance LMSNINVSIYIFG, the amyloid nucleation score is 7.782 ± 0.063.

LMSQGCRGRLLL had an amyloid nucleation score of -0.356 ± 0.64.

Substance LMVESNWHALHLVYVFSYI displayed an amyloid nucleation score of 0 ± 0.56.

Regarding LMVKSDTCLLSLLSPTPFRR, the amyloid nucleation score amounted to 3.67 ± 0.1.

LMYGKEWSMEQIVGTSTFGY returned an amyloid nucleation score of -1.36 ± 0.48.

Substance LNCENELDFKLLSQSNTTMC returned an amyloid nucleation score of 0.199 ± 0.62.

Take LNEIERSSD: the amyloid nucleation score came to 0.755 ± 0.3.

With LNIAMVASNGRSVAVRSSGG, the amyloid nucleation score was found to be 0.113 ± 0.5.

LNLFFLCGYPYYRNVGCMGH showed an amyloid nucleation score of 7.195 ± 0.067.

Take LNLNR: the amyloid nucleation score result was “inactive”.

The substance LNMPLLYDYPCYNSWDRYYS displayed an amyloid nucleation score of -1.5 ± 0.53.

LNPIFVWFHSC returned an amyloid nucleation score of 7.23 ± 0.077.

LNRLCRRVCRSINDTIAIRE had an amyloid nucleation score of -0.157 ± 0.26.

LNRTRYIAISKVLNRFSVSR registered an amyloid nucleation score of -0.237 ± 0.64.

In turn, LNSQSLVAYMRAFVKDSPCR had an amyloid nucleation score of 0.007 ± 1.1.

With LNSYPASV, the amyloid nucleation score result was “inactive”.

Regarding LNTLDNN, the amyloid nucleation score was -0.047 ± 0.16.

For the substance LNTYMAYSGWIVTN, the amyloid nucleation score is -0.148 ± 0.33.

For LNVDP, the amyloid nucleation score result was “inactive”.

LNYYWRFMPGGIGITGSSLS displayed an amyloid nucleation score of 1.72 ± 0.12.

As for LPCFYEVCQTSHYRFYFIGK, the amyloid nucleation score was 1.96 ± 0.071.

LPCRFKKYALHNQSTTGFWI had an amyloid nucleation score of -0.187 ± 0.65.

LPHCL gave an amyloid nucleation score of 1.36 ± 0.24.

Take LPKGNYSLLAERRSYFGAPI: the amyloid nucleation score result was “inactive”.

LQCAFFDSSNMWI registered an amyloid nucleation score of -0.604 ± 0.76.

With LQCLSRASGHCPGRSTFWHF, the amyloid nucleation score came to 1.02 ± 0.27.

Substance LQGRYNSTYYMDVAGLVVSE registered an amyloid nucleation score of -1.23 ± 0.76.

LQLCCAMVS came in with an amyloid nucleation score of 0.883 ± 0.44.

Substance LQRVF yielded an amyloid nucleation score of 1.19 ± 0.47.

LQSCAGTFTCDCVVGRNYGR: the amyloid nucleation score came out at 0.31 ± 0.23.

As for LQSRWCRVKETWQS, the amyloid nucleation score is 1.66 ± 0.32.

LQVMMYFWDEFVTKLEKVSG displayed an amyloid nucleation score of -0.809 ± 1.1.

LQYFLGAFAILFMCLLWVLQ yielded an amyloid nucleation score of 0.381 ± 0.64.

LRDCLIRNPLKLRTKLTGHV: the amyloid nucleation score is 0.608 ± 0.3.

On to LRFASSNKLVGLD, for which the amyloid nucleation score result is “inactive”.

Substance LRFVVMVHLE had an amyloid nucleation score of -0.072 ± 0.79.

Substance LRHCVYVYSATSRWIC showed an amyloid nucleation score of 0.674 ± 0.43.

For the substance LRIICMSTMWRKCFRGIATA, the amyloid nucleation score is -0.195 ± 0.39.

LRIQCMMTLVWYSTPQSCNT had an amyloid nucleation score of 5.56 ± 0.066.

Take LRLSHMFLVNMSWGNVINLC: the amyloid nucleation score was 3.28 ± 0.091.

LRNHSHA registered an amyloid nucleation score of 0.685 ± 0.41.

Take LRSGLSLGSNLPKGGNIRSL: the amyloid nucleation score was -0.531 ± 1.1.

In turn, LRSLIYRCVLQWNTAKFLRS showed an amyloid nucleation score of -0.716 ± 1.1.

For the substance LRSRVSSSLSYKLLFRTNVL, the amyloid nucleation score is -0.175 ± 0.49.

In turn, LRSYLNSHLLLEY yielded an amyloid nucleation score of -1.44 ± 0.62.

Turning to LRTIHYPC, the amyloid nucleation score result is “inactive”.

Turning to LRTYYPRNVGA, the amyloid nucleation score was -0.117 ± 0.5.

On to LRWQKNLNSL, for which the amyloid nucleation score was -0.778 ± 0.64.

Take LRYPKRGFPNHVLSIESKLD: the amyloid nucleation score was -0.479 ± 1.

With LRYSTSHSKNRRSDALNIKG, the amyloid nucleation score was -0.739 ± 0.45.

In the case of LRYVEGHGKDITSGGSLEEH, the amyloid nucleation score amounted to 1.41 ± 0.14.

Substance LSAVVTSFKVTN displayed an amyloid nucleation score of 0.523 ± 0.64.

With LSFVVL, the amyloid nucleation score was -0.67 ± 1.1.

Regarding LSGLIGG, the amyloid nucleation score was -0.135 ± 0.55.

LSHMPDMALAKPWHRARD yielded an amyloid nucleation score of 5.04 ± 0.076.

LSHRSQYGADVIRSR displayed an amyloid nucleation score of -0.316 ± 0.61.

LSKMWPPIHTTLIPLTDAER had an amyloid nucleation score of 4.84 ± 0.06.

The substance LSLFISGDYWVIQGNIY gave an amyloid nucleation score of 3.65 ± 0.059.

For LSLNFLPYWLPQARCL, the amyloid nucleation score turned out to be 5.06 ± 0.099.

LSLTNIYGKSIRDERIKTSC displayed an amyloid nucleation score of -0.129 ± 0.65.

On to LSLVEIFLGMRSLEVFCWVE, for which the amyloid nucleation score is -0.709 ± 0.28.

On to LSLVYRIGLNCNRELSSFDW, for which the amyloid nucleation score is 2.33 ± 0.1.

LSLYWVMSLKSQAP: the amyloid nucleation score stood at 0.354 ± 0.64.

In turn, LSMSWC returned an amyloid nucleation score of 1.1 ± 0.44.

LSMVYYATFDGF: the amyloid nucleation score was -1.01 ± 1.1.

On to LSMYDLYSMAR, for which the amyloid nucleation score result is “inactive”.

On to LSPIVVPLYKQLDIFGVRRN, for which the amyloid nucleation score result is “inactive”.

In turn, LSREFLNASL displayed an amyloid nucleation score of -0.947 ± 0.49.

With LSRFNFSNVLLRRNMSARA, the amyloid nucleation score is -1.78 ± 0.62.

In the case of LSRSGNAPDMKKLLNFGQTR, the amyloid nucleation score was 3.71 ± 0.042.

In turn, LSRSMK had an amyloid nucleation score of -0.326 ± 0.29.

In turn, LSSEVISSSHALQKTSICRF registered an amyloid nucleation score of 2.72 ± 0.13.

In the case of LSSGEYVSSGMRGTSCEKSK, the amyloid nucleation score was -0.007 ± 0.79.

For LSSIWVSSYHLSWLKSW, the amyloid nucleation score is -0.048 ± 0.42.

For the substance LSTSWQRLVTILPLEWYHS, the amyloid nucleation score was found to be 0.052 ± 0.26.

For the substance LSYSVNWWPRSGWSYYVNEF, the amyloid nucleation score is -0.176 ± 1.1.

The substance LSYVDWKCAVFDICW returned an amyloid nucleation score of 3.53 ± 0.043.

LTACRVLRLLKCSQRE: the amyloid nucleation score amounted to 4.68 ± 0.075.

For LTCRTFYNNCVNEWSLHLSL, the amyloid nucleation score came out at 4.07 ± 0.072.

Consider LTGMVTCATI, for which the amyloid nucleation score stood at 0.53 ± 0.36.

In turn, LTHEKLKGLYCTA gave an amyloid nucleation score of -0.404 ± 0.32.

As for LTHSRNLRKVRTNRNNETHV, the amyloid nucleation score was 0.005 ± 1.

In turn, LTLLYIWSKDAVRYLLGNMD came in with an amyloid nucleation score of -1.09 ± 1.1.

With LTRVNWCLPKAGSLKQF, the amyloid nucleation score was -0.06 ± 0.79.

In turn, LTSGVHCHKRTVHD registered an amyloid nucleation score of -0.263 ± 1.1.

The substance LTSISYIIGDRWSIEVGRVF came in with an amyloid nucleation score of -0.337 ± 1.1.

In turn, LTSSSSSQVWGLYVYDGHLK displayed an amyloid nucleation score of -0.045 ± 0.38.

LTTKKLRSWV showed an amyloid nucleation score of -0.895 ± 1.1.

For LTTPLSRQVCMRFRAFNPEA, the amyloid nucleation score is -0.655 ± 0.41.

Take LTVLCPANLSYRIVYVLLYK: the amyloid nucleation score is -0.865 ± 0.41.

For LTWRYLLYPLDKFGLETWVL, the amyloid nucleation score came out at 0.375 ± 0.46.

Substance LTYIRMQVHLVDYDRDALG yielded an amyloid nucleation score of -1.32 ± 0.49.

For LTYYLRSFVIPSWG, the amyloid nucleation score entry was “inactive”.

The substance LVALK returned an amyloid nucleation score of 1.08 ± 0.51.

With LVAVVQGFRCVCLDSKLTGV, the amyloid nucleation score entry was “inactive”.

Substance LVCGLDGLVCS showed an amyloid nucleation score of 0.111 ± 0.56.

The substance LVDKVYNDAILLVWDNESRT yielded an amyloid nucleation score of -0.464 ± 0.64.

The substance LVESGQGDQSAPNRTDWFNG displayed an amyloid nucleation score of -0.437 ± 0.49.

Substance LVESVTEEQE returned an amyloid nucleation score of 0.837 ± 0.47.

The substance LVEVIGFVRVSEPISTHA returned an amyloid nucleation score of 0.884 ± 0.33.

LVFLIETRNFFRLHLSGCWA registered an amyloid nucleation score of -1.27 ± 0.75.

Substance LVGYLSSVELDYRWENC displayed an amyloid nucleation score of -0.026 ± 0.32.

On to LVHFNFMCVVARMFDMFF, for which the amyloid nucleation score result was “inactive”.

As to LVMRMFRERYNLCVSYWLN, the amyloid nucleation score entry was “inactive”.
